The numbers were not newly measured in publication PMC12093155, which cites them from elsewhere.

For this data set, the target named is Prx1 (Homo sapiens) (UniProt Q06830).
Sequence of Prx1 (Homo sapiens) (Q06830 2-199): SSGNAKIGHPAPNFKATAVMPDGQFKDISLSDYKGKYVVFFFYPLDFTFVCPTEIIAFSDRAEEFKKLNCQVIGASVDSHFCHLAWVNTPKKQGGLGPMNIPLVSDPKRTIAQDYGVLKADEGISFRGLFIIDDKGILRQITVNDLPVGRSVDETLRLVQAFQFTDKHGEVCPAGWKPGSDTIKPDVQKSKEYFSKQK

Sequence of Srx (Q9BYN0 whole entry): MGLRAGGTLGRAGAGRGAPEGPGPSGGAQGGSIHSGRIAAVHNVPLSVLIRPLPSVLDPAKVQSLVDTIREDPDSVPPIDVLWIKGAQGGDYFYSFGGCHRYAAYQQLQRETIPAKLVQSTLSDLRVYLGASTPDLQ

For the substance Srx (from UniProt Q9BYN0), the equilibrium dissociation constant (Kd) (commonly the concentration at which binding is half-saturated) was 7 µM.
